Reference: article PMC5667555

Target: ARTS-VN (UniProt O43236)
Test: split reporter

percent decrease of the BiFC signal compared to WT Bcl-2: 47%
Substance: Bcl-2delBH3-VC (from UniProt P10415 1-239) (natural protein)
